Each block holds one binder with its values, some of them ahead of it.
Key:
Settings in all cases: both partners purified
[1] = target: T1, LSSmGFP-PRL-3.C104D (human, UniProt O75365 1-173, C104D); assay: co-IP; in vitro, purified proteins: HA-CBS or HA-CBS-mScarlet3 (2.5 μM) on HA-Tag magnetic beads; equimolar PRL-3 or LSSmGFP-PRL3.C104D with 1 mM TCEP, pre-incubated with 50 μM test compounds or DMSO; 25 mM Tris-HCl pH 7.4, 150 mM NaCl, 1% NP-40, 5% glycerol; room temperature
T1 construct: full-length PRL-3 with C104D, joined to LSSmGFP at its N-terminus by a glycine/serine linker; also called FRET donor; source: E. coli BL21 Star DE3, purified (Ni-NTA, TEV cleavage, second Ni-NTA, Superdex 200); not shown: LSSmGFP, N-terminal, kept
T1 sequence (O75365 whole entry C104D): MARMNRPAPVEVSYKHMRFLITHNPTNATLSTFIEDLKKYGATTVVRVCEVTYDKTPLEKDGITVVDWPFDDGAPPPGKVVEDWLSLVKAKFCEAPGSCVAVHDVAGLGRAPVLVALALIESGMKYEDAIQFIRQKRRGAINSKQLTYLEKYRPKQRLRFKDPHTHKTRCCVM

[2] = target: T2, recombinant full-length human PRL-3 (human, UniProt O75365 1-173); assay: as above
T2 construct: full-length human PRL-3 cloned into pSKB3 (modified pET-28b with a TEV site); also called purified PRL-3; non-fluorescent PRL-3; source: E. coli BL21 Star DE3, purified (Ni-NTA, TEV cleavage, second Ni-NTA, Superdex 200)
T2 sequence (O75365 whole entry): as the sequence (O75365 whole entry C104D) above, with D104C counted along it

[3] = target: T1, LSSmGFP-PRL-3.C104D; assay: FRET or BRET; in vitro FRET of purified proteins, LSSmGFP-PRL-3 C104D with increasing concentrations of HA-CBS-mScarlet3; excitation 400 nm, emission 600 nm

- binding result [1]: binds
- binding result [2]: binds
B1: HA-CBS (CBS domain of CNNM3, residues Y301-D451, with an N-terminal HA tag) (domain or fragment, UniProt Q8NE01-1 301-451, looked up)
chain: YSDLSKGVLRCRTVEDVLTPLEDCFMLDASTVLDFGVLASIMQSGHTRIPVYEEERSNIVDMLYLKDLAFVDPEDCTPLSTITRFYNHPLHFVFNDTKLDAVLEEFKRGKSHLAIVQKVNNEGEGDPFYEVLGLVTLEDVIEEIIRSEILD
notes: also called purified CBS domain; unlabelled HA-CBS; source: E. coli BL21 Star DE3, purified (Ni-NTA, TEV cleavage, second Ni-NTA, Superdex 200); not shown: HA, N-terminal, kept

- binding result [3]: binds
- binding result [2]: binds
B2: HA-CBS-mScarlet3 (domain or fragment, UniProt Q8NE01-1 301-451, looked up)
chain: B1 chain
notes: CBS domain of CNNM3, residues Y301-D451, joined to mScarlet3 at its C-terminus by a glycine/serine linker; also called FRET acceptor; source: E. coli BL21 Star DE3, purified (Ni-NTA, TEV cleavage, second Ni-NTA, Superdex 200); not shown: HA, N-terminal, kept; mScarlet3, C-terminal, kept

Reference: publication doi:10.1101/2025.05.14.654016, “Phosphatase activity is dispensable for PRL-3-mediated oncogenesis and tumor progression” (bioRxiv, 2025)
